This is an account of results in patent US7119182 (University of California, dated 2006).

Numbered stars: 1 amine (or outer) side, 2 acyl side, 3 side chain; on linkers, the order of the positions; unused ones are H or OH. Square brackets hold non-standard residues; d marks the D form. Ends that are not written are not given here. SMeCys = S-methylcysteine, CSC[C@H](N[*:1])C(=O)[*:2]; Tic = O=C(O)[C@@H]1Cc2ccccc2CN1; Cha = N[C@@H](CC1CCCCC1)C(=O)O; Phg = N[C@H](C(=O)O)c1ccccc1

Sequences and labels used below:
T1: human thrombin receptor (human, UniProt P25116 42-425)
T1 chain: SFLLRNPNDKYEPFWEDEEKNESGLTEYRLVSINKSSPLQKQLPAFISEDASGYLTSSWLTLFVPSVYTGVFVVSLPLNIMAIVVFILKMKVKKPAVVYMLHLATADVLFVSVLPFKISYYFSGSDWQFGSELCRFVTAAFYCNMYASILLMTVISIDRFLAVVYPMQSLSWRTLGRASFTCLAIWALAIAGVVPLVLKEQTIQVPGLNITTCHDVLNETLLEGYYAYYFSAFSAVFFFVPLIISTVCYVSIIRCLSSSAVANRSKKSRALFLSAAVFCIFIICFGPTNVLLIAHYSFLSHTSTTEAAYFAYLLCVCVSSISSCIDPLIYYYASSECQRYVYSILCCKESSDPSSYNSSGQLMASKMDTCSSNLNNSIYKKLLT

B1: (S-MeCys)FLLRN-NH2 (peptide)
peptide: [SMeCys]FLLRN-NH2
modifications: N-terminus assumed
SMILES: CSC[C@H](N)C(=O)N[C@@H](Cc1ccccc1)C(=O)N[C@@H](CC(C)C)C(=O)N[C@@H](CC(C)C)C(=O)N[C@@H](CCCNC(=N)N)C(=O)N[C@@H](CC(N)=O)C(N)=O
B2: SF(Phg)LR-NH2 (peptide)
peptide: SF[Phg]LR-NH2
modifications: N-terminus assumed
SMILES: CC(C)C[C@H](NC(=O)[C@@H](NC(=O)[C@H](Cc1ccccc1)NC(=O)[C@@H](N)CO)c1ccccc1)C(=O)N[C@@H](CCCNC(=N)N)C(N)=O
B3: SF(Cha)LRN-NH2 (peptide)
peptide: SF[Cha]LRN-NH2
modifications: N-terminus assumed
SMILES: CC(C)C[C@H](NC(=O)[C@H](CC1CCCCC1)NC(=O)[C@H](Cc1ccccc1)NC(=O)[C@@H](N)CO)C(=O)N[C@@H](CCCNC(=N)N)C(=O)N[C@@H](CC(N)=O)C(N)=O
B4: SFL(Cha)R-NH2 (peptide)
peptide: SFL[Cha]R-NH2
modifications: N-terminus assumed
SMILES: CC(C)C[C@H](NC(=O)[C@H](Cc1ccccc1)NC(=O)[C@@H](N)CO)C(=O)N[C@@H](CC1CCCCC1)C(=O)N[C@@H](CCCNC(=N)N)C(N)=O
B5: SF(Cha)LR-NH2 (peptide)
peptide: SF[Cha]LR-NH2
modifications: N-terminus assumed
SMILES: CC(C)C[C@H](NC(=O)[C@H](CC1CCCCC1)NC(=O)[C@H](Cc1ccccc1)NC(=O)[C@@H](N)CO)C(=O)N[C@@H](CCCNC(=N)N)C(N)=O
B6: SF(Tic)LRN-NH2 (peptide)
peptide: SF[Tic]LRN-NH2
modifications: N-terminus assumed
SMILES: CC(C)C[C@H](NC(=O)[C@@H]1Cc2ccccc2CN1C(=O)[C@H](Cc1ccccc1)NC(=O)[C@@H](N)CO)C(=O)N[C@@H](CCCNC(=N)N)C(=O)N[C@@H](CC(N)=O)C(N)=O

The target in this test is T1, human thrombin receptor. In words: cell-based or functional assay.
Regarding SFLLR-NH2 [SFLLR-NH2], the “EC50 (concentration required to elicit a 50% maximal aggregation), platelet aggregation” value stood at 7.5 µM. As for SFLLRNP-NH2 [SFLLRNP-NH2], the figure is 4.5 µM; as for SFPLR-NH2 [SFPLR-NH2], 22 µM.

For the molecule GFLLR-NH2 [GFLLRNH2], the “EC50 (concentration required to elicit a 50% maximal aggregation), platelet aggregation” value was found to be 7.3 µM.

Take B1: the “EC50 (concentration required to elicit a 50% maximal aggregation), platelet aggregation” value turned out to be 129 µM.

As for SXLLR (Cha at position 2; C-terminal amide (NH2)) [S(Cha)LLR-NH2], the “EC50 (concentration required to elicit a 50% maximal aggregation), platelet aggregation” value came out at 140 µM.

As to SYLLR-NH2 [SYLLR-NH2], the “EC50 (concentration required to elicit a 50% maximal aggregation), platelet aggregation” value is 288 µM.

Turning to SFRLR-NH2 [SFRLR-NH2], the “EC50 (concentration required to elicit a 50% maximal aggregation), platelet aggregation” value is 7.4 µM. As for B2, the figure is 6.7 µM; as for SFWLR-NH2 [SFWLR-NH2], 24 µM; as for SFILR-NH2 [SFILR-NH2], 5.9 µM. As for SFLLRNPN, the “EC50 (concentration required to elicit a 50% maximal aggregation), platelet aggregation” value turned out to be 7.6 µM.

As for {2‑MeButyryl}-FLLR-NH2 [(2-MeButyryl]-FLLR-NH2], the “EC50 (concentration required to elicit a 50% maximal aggregation), platelet aggregation” value came to 1500 µM. The result for desaminoAsn-FLLR-NH2 [[desaminoAsn]-FLLR-NH2] reads 237 µM; that for TFLLRNPNDK, 8.5 µM; that for B3, 1.3 µM. On to XFLLR (b-Ala at position 1; C-terminal amide (NH2)) [[b-Ala]-FLLR-NH2], for which the “EC50 (concentration required to elicit a 50% maximal aggregation), platelet aggregation” value worked out at 99 µM.

Take XFLLR (desaminoSer at the N-terminus; C-terminal amide (NH2)) [[desaminoSer]-FLLR-NH2]: the “EC50 (concentration required to elicit a 50% maximal aggregation), platelet aggregation” value came to 920 µM. With AFLLRNPNDKYE, the “EC50 (concentration required to elicit a 50% maximal aggregation), platelet aggregation” value is 12.9 µM. The result for SXLLR (OMeTyr at position 2; C-terminal amide (NH2)) [S(OMeTyr)LLR-NH2] reads 46 µM. Take SFALRNPNDKYE: the “EC50 (concentration required to elicit a 50% maximal aggregation), platelet aggregation” value was determined as 20.7 µM.

Take SFL[Nal]RN-NH2 (not fully specified; printed as SFL(Nal)RN-NH2) [SFL(Nal)RN-NH2]: the “EC50 (concentration required to elicit a 50% maximal aggregation), platelet aggregation” value was determined as 7.5 µM. As for SFLIRN-NH2 [SFLIRN-NH2], the figure is 20.5 µM. The result for SFLAR-NH2 [SFLAR-NH2] reads 146 µM. As for CFLLR-NH2 [CFLLR-NH2], the figure is 193 µM; as for SFXLR (N-MeLeu at position 3; C-terminal amide (NH2)) [SF(N-MeLeu)LR-NH2], over 1000 µM; as for B4, 6 µM.

Take SFYLRN-NH2 [SFYLRN-NH2]: the “EC50 (concentration required to elicit a 50% maximal aggregation), platelet aggregation” value was determined as 4.9 µM. For SFLLRNPNDK, the “EC50 (concentration required to elicit a 50% maximal aggregation), platelet aggregation” value was 6.3 µM.

SFLFR-NH2 [SFLFR-NH2]: the “EC50 (concentration required to elicit a 50% maximal aggregation), platelet aggregation” value amounted to 17 µM. The result for SFLRR-NH2 [SFLRR-NH2] reads 1000 µM. As for SFHLRN-NH2 [SFHLRN-NH2], the figure is 40.5 µM; as for SFGLR-NH2 [SFGLR-NH2], 95 µM; as for B5, 1.5 µM. On to SXLLR (Thi at position 2; C-terminal amide (NH2)) [S(Thi)LLR-NH2], for which the “EC50 (concentration required to elicit a 50% maximal aggregation), platelet aggregation” value is 7.6 µM.

Turning to SFLLRNPNDKYE, the “EC50 (concentration required to elicit a 50% maximal aggregation), platelet aggregation” value came out at 6.6 µM. With Ac-FLLRNPNDKYEPF [Ac-FLLRNPNDKYEPF], the “EC50 (concentration required to elicit a 50% maximal aggregation), platelet aggregation” value amounted to 796 µM. As for SFLQRN-NH2 [SFLQRN-NH2], the figure is 61 µM; as for B6, 11.3 µM. As for SFLL-NH2 [SFLL-NH2], the figure is 146 µM.

Regarding SXLLR (Nal at position 2; C-terminal amide (NH2)) [S(Nal)LLR-NH2], the “EC50 (concentration required to elicit a 50% maximal aggregation), platelet aggregation” value came to 42 µM. As for {3‑Tetrahydrofuranoyl}-FLLR-NH2 [[3-Tetrahydrofuranoyl]-FLLR-NH2], the figure is 1000 µM; as for SFFLRN-NH2 [SFFLRN-NH2], 1.5 µM. As to SFLLRN-NH2 [SFLLRN-NH2], the “EC50 (concentration required to elicit a 50% maximal aggregation), platelet aggregation” value came to 1.6 µM. Turning to SFFLR-NH2 [SFFLR-NH2], the “EC50 (concentration required to elicit a 50% maximal aggregation), platelet aggregation” value is 3.4 µM.
